From IntAct's records for PubMed 26598606

B1: Protein OPY2 (Saccharomyces cerevisiae), Q06810 (parent)
chain: MSSSSKASASSSLSSTATSSTSATRGSDGCVVCDSTASCPVCASGEYCVMTSLTCDKCPSTYCAKQSDSQLSSLSSSSSSSSSSNSNEKTSLIVGFTVGIVGGAMLIALVALYFINKRYWKPKRQKNKALKLEEASQSYGNEEEYFDDEDDDDEDDEDDGGMRKDESHTLFNTSLVPPTLNVPGNRSSASTTRTRASNILPIAYIPGVTSGLSTDKLQSKLRSSSKRQNAAGDIRSHITLGSSILDGLDDEDDEHNQVLNKDADDNLITAIRAKPKLVQIAEEESDKEIQDLDVIEEQTEADDLSHMAKSEASHGNNDEDDDEEGSFILDLEIPESIRESTQGSRTESPFEDKFEIHDER
partner: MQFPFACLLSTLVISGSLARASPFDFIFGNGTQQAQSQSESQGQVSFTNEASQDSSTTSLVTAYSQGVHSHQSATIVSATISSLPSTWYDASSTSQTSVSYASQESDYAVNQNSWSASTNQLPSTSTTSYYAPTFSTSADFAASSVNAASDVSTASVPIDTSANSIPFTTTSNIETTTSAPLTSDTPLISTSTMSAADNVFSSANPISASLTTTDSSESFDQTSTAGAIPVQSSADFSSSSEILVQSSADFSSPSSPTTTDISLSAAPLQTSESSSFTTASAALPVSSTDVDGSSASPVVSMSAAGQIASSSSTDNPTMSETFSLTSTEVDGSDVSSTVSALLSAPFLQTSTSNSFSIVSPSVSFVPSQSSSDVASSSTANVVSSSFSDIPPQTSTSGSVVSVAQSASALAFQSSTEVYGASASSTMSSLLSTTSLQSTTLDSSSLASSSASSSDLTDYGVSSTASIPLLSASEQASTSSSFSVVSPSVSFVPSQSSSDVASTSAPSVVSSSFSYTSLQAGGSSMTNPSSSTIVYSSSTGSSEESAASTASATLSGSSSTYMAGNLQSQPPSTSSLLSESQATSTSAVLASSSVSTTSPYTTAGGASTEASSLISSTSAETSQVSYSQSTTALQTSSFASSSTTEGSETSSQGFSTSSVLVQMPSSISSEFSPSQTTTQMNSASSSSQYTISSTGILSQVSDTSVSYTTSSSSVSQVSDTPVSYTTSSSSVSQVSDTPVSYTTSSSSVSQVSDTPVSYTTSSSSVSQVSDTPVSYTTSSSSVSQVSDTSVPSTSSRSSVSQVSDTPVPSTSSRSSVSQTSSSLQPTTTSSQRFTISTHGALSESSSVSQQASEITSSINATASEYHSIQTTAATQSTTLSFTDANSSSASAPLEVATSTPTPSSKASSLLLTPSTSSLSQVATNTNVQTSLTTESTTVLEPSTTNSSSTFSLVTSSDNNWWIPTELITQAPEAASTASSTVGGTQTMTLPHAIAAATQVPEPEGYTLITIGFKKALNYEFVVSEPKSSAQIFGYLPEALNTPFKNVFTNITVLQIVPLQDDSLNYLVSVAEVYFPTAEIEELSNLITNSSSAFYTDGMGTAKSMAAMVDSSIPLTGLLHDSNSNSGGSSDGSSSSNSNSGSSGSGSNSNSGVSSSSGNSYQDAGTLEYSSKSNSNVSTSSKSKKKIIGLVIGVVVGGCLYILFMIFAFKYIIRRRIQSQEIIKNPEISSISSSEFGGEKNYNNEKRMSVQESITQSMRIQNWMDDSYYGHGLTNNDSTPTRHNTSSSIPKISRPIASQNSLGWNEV

Variants of: B1
Details: with msb2_yeast MSB2, P32334

Variant	effect of a mutation on the interaction
MSSSSKASASSSLSSTATSSTSATRGSDGAVVCDSTASCPVCASGEYCVMTSLTADKCPSTYCAKQSDSQLSSLSSSSSSSSSSNSNEKTSLIVGFTVGIVGGAMLIALVALYFINKRYWKPKRQKNKALKLEEASQSYGNEEEYFDDEDDDDEDDEDDGGMRKDESHTLFNTSLVPPTLNVPGNRSSASTTRTRASNILPIAYIPGVTSGLSTDKLQSKLRSSSKRQNAAGDIRSHITLGSSILDGLDDEDDEHNQVLNKDADDNLITAIRAKPKLVQIAEEESDKEIQDLDVIEEQTEADDLSHMAKSEASHGNNDEDDDEEGSFILDLEIPESIRESTQGSRTESPFEDKFEIHDER [C30A;C55A]	decreasing interaction strength
MSSSSKASASSSLSSTATSSTSATRGSDGCVVADSTASCPVCASGEYCVMTSLTCDKAPSTYCAKQSDSQLSSLSSSSSSSSSSNSNEKTSLIVGFTVGIVGGAMLIALVALYFINKRYWKPKRQKNKALKLEEASQSYGNEEEYFDDEDDDDEDDEDDGGMRKDESHTLFNTSLVPPTLNVPGNRSSASTTRTRASNILPIAYIPGVTSGLSTDKLQSKLRSSSKRQNAAGDIRSHITLGSSILDGLDDEDDEHNQVLNKDADDNLITAIRAKPKLVQIAEEESDKEIQDLDVIEEQTEADDLSHMAKSEASHGNNDEDDDEEGSFILDLEIPESIRESTQGSRTESPFEDKFEIHDER [C33A;C58A]	decreasing interaction strength

More lines, now with the values ahead:

effect of a mutation on the interaction	Variant
disrupting interaction strength	MSSSSKASASSSLSSTATSSTSATRGSDGCVVADSTASAPVCASGEYCVMTSLTCDKCPSTYCAKQSDSQLSSLSSSSSSSSSSNSNEKTSLIVGFTVGIVGGAMLIALVALYFINKRYWKPKRQKNKALKLEEASQSYGNEEEYFDDEDDDDEDDEDDGGMRKDESHTLFNTSLVPPTLNVPGNRSSASTTRTRASNILPIAYIPGVTSGLSTDKLQSKLRSSSKRQNAAGDIRSHITLGSSILDGLDDEDDEHNQVLNKDADDNLITAIRAKPKLVQIAEEESDKEIQDLDVIEEQTEADDLSHMAKSEASHGNNDEDDDEEGSFILDLEIPESIRESTQGSRTESPFEDKFEIHDER [C33A;C39A]
disrupting interaction strength	MSSSSKASASSSLSSTATSSTSATRGSDGAVVCDSTASCPVAASGEYCVMTSLTCDKCPSTYCAKQSDSQLSSLSSSSSSSSSSNSNEKTSLIVGFTVGIVGGAMLIALVALYFINKRYWKPKRQKNKALKLEEASQSYGNEEEYFDDEDDDDEDDEDDGGMRKDESHTLFNTSLVPPTLNVPGNRSSASTTRTRASNILPIAYIPGVTSGLSTDKLQSKLRSSSKRQNAAGDIRSHITLGSSILDGLDDEDDEHNQVLNKDADDNLITAIRAKPKLVQIAEEESDKEIQDLDVIEEQTEADDLSHMAKSEASHGNNDEDDDEEGSFILDLEIPESIRESTQGSRTESPFEDKFEIHDER [C30A;C42A]
